One may read the Kd as the equilibrium constant for the complex coming apart. Low values mean a tighter complex, high ones a looser complex.

Drawing on paper doi:10.1101/2022.02.18.481027, this text covers Kd for one substance.

In assay [1] the target is Murine GP130 ectodomain with C-terminal biotin acceptor peptide, biotinylated (murine) (UniProt Q00560). Description: SPR. (SPR reads the build-up and loss of mass on a sensor chip optically.)
The target of assay [2] is Murine IL-27Rα ectodomain (amino acids 28-224), N-terminally biotinylated (murine) (UniProt O70394). Description: SPR.
Murine IL-27Rα ectodomain (amino acids 28-224), N-terminally biotinylated (murine), sequence (O70394 28-224): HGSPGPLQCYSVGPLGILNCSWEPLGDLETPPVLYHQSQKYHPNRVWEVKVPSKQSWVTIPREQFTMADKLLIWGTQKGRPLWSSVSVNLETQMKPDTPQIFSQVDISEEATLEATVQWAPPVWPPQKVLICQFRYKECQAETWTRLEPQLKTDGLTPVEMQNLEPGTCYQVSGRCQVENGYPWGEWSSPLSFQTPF

Murine GP130 ectodomain with C-terminal biotin acceptor peptide, biotinylated (murine), sequence (Q00560 23-319): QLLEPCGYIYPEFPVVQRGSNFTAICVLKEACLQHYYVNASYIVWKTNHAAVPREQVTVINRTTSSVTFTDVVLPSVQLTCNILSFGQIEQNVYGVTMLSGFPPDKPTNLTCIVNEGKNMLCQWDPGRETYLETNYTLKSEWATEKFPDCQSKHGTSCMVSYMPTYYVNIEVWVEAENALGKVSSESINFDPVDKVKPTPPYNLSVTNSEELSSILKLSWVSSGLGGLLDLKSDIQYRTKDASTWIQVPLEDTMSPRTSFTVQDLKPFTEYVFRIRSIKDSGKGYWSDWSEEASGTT

With “Murine IL-27, linker-connected single-chain variant (p28+EBI3) (ligand)”, the Kd amounted to 3.1 nM in assay [1] and 0.29 nM in assay [2].
